According to article doi:10.1101/842088:
Read-outs that look alike come from different tables or passages of the source.

Tests used:
Assay in all cases: fluorescence polarization
NS3h WT (T7 Shuffle) [1] = biological target: T1, NS3h WT (T7 Shuffle) (dengue virus 4, UniProt P09866 1646-2092)
NS3h WT = NS3h WT (dengue virus 4, UniProt P09866 1646-2092)
NS3h WT (T7 Shuffle) [2] = biological target: T1, NS3h WT (T7 Shuffle); remark: listed apart in the source

T1 sequence (P09866 1646-2092): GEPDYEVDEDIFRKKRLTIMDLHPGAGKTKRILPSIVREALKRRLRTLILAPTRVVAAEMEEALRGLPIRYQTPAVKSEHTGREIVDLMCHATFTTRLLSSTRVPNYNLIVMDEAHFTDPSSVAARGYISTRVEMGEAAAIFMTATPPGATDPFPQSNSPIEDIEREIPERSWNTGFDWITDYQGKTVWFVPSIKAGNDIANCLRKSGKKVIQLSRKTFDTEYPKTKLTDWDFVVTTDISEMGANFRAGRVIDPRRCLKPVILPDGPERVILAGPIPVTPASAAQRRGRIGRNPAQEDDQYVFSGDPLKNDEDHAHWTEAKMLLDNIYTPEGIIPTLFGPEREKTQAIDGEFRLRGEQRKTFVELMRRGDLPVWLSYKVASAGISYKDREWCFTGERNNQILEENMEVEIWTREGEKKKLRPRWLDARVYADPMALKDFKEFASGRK
Sequence of NS3h WT (P09866 1646-2092): as above

Binder: AGUAA (ssRNA, 5'-diphosphate (pp (so in the source))) [ppAGUAA Alexa-488 RNA oligo]
- Kd (NS3h WT (T7 Shuffle) [1]): 3.4 ± 1.4 µM
- Kd (NS3h WT): 1.9 ± 0.8 µM
- Kd (NS3h WT (T7 Shuffle) [2]): 4.5 ± 1.5 µM
